The results in this text go back to US20120178908A1 (Novo Nordisk, published 2012).

Experiment [1] has as its target T1, TLT1 (human TLT-1, reagent of the SPR studies, source NN) (human, UniProt Q86YW5 16-162, limits assumed).
T1 sequence: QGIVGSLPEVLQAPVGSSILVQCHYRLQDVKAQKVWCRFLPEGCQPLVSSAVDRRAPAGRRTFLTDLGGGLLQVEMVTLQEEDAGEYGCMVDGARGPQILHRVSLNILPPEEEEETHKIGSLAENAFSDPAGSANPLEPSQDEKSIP
In words: SPR (Biacore), mAb immobilised directly on CM5, TLT1 as analyte. How it is done:
The mAbs of interest were either immobilized directly to a CM5 chip or by capture via a human Fc capture mAb immobilized to a CM5 chip.
Direct capture: The TLT-1 mAbs were immobilised to a level of approx 500-1000 RU on a CM5 chip (50 μg/ml diluted in Na-acetate, pH 4.0) using the standard procedure recommended by the supplier. Two-fold dilutions of TLT1 from 200 nM to 0.2 nM were tested for binding to the mABs. Running and dilution buffer: 10 mM HEPES, 150 mM, 0.005% p20, pH 7.4. Regeneration was obtained by 10 mM Glycine, pH 1.7.

For another experiment, the target named is T2, hTLT-1 ECD-HPC4 F54A (human, UniProt Q86YW5 16-162).
T2 construct: As m27; also called Ala mutant 12
T2 chain: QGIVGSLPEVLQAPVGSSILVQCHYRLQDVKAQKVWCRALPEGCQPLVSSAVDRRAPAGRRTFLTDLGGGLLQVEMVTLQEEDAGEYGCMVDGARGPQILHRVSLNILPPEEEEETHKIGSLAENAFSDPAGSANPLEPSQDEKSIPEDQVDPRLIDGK
In words: SPR (ProteOn), mAb captured by anti-hFc, 100 nM mutant, signal 10 s after injection normalised to captured mAb. How it is done:
(§1) Each anti-body was diluted in 10 mM sodium acetate pH 5.0 to a concentration of […], and was immobilized to an individual flow cell at 30 μl/min for 240s. The antibodies were immobilized to flow cells A1-A6 (horizontal direction). After immobilization, the active sites on the flow cell were blocked with 1 M ethanolamine. The final immobilization level of capture antibody typically ranged from approximately 9,000 to 10,000 RU in one experiment. Capture of the anti-TLT1 antibodies 0197-0000-0023, 0197-0000-0051, 0197-0000-0061 and 0197-0000-0062 was conducted by diluting to […] into HBS-EP buffer (10 mM HEPES, 150 mM NaCl, 3 mM EDTA, 0.05% surfactant P20, pH 7.4) and injected at 30 μl/min for 60s in vertical direction, creating interspot reference points with only anti-human Fc antibodies. The final capture level of test antibodies typically ranged from approximately 200 to 300 RU in one experiment. Binding of wt or Ala mutant hTLT-1 ECD-HPC4 protein was conducted by injecting over parallel flow cells in horizontal direction to allow for comparative analyses of binding to different captured anti-TLT1 antibodies relative to binding to the interspot references. Each hTLT-1 ECD-HPC4 protein was diluted to 100 nM, based on the calculated average Mw, into HBS-EP buffer and injected at 30 μl/min for 240s. The GLM chip was regenerated after each injection cycle of analyte via one 18 s injection of 1 M Formic acid followed by a 18s injection of 50 mM NaOH at 100 μl/min. This regeneration step removed the anti-TLT1 antibody and any bound TLT1 from the immobilized capture antibody surface, and allowed for the subsequent binding of the next test sample pair.
(§2) Data analysis was performed using the ProteOn Manager™ Software. No significant non-specific binding to the interspot control surfaces was observed. Binding curves were processed by double referencing (subtraction of interspot control surface signals as well as blank buffer injections over captured anti-TLT1 antibodies). This allowed correction for instrument noise, bulk shift and drift during sample injections. Binding signal at 10 s after stop of analyte injection was normalized to level of captured anti-TLT1 antibody and presented as binding relative to wt hTLT-1 ECD-HPC4 protein.

In the next experiment the target is T3, hTLT-1 ECD-HPC4 M91A (human, UniProt Q86YW5 16-162).
T3 construct: As m27; also called Ala mutant 24
T3 chain: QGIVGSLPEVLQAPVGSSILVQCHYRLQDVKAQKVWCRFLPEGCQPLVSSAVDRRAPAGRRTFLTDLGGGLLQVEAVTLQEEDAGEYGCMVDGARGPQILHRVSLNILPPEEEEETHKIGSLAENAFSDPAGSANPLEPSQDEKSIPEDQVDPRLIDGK
The experiment is described as above. How it is done: as §1, §2

The target of the next experiment is T4, hTLT-1 ECD-HPC4 R117A (human, UniProt Q86YW5 16-162).
T4 construct: As m27; also called Ala mutant 32
T4 chain: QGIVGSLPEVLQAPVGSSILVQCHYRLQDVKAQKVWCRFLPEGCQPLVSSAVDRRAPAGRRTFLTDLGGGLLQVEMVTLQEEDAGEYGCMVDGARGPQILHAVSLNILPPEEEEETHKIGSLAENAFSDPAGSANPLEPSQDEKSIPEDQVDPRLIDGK
The description is as above. The procedure: as §1, §2

The next experiment addresses T5, hTLT-1 ECD-HPC4 S119A (human, UniProt Q86YW5 16-162).
T5 construct: As m27; also called Ala mutant 33
T5 chain: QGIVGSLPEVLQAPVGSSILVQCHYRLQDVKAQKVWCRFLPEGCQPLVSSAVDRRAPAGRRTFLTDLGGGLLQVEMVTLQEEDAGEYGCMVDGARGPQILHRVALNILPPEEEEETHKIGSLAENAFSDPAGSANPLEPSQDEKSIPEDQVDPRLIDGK
The experiment is described as above. How it is done:
as §1, §2

The target of the next experiment is T6, hTLT-1 ECD-HPC4 L42A (human, UniProt Q86YW5 16-162).
T6 construct: As m27; also called Ala mutant 8
T6 chain: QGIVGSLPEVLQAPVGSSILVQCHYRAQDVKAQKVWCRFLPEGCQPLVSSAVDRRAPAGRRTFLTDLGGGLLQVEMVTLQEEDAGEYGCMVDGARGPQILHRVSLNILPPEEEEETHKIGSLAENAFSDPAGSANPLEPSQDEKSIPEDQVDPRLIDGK
Described as above. How it is done: as §1, §2

For the next experiment, the target named is T7, hTLT-1 ECD-HPC4 Q43A (human, UniProt Q86YW5 16-162).
T7 construct: As m27; also called Ala mutant 9
T7 chain: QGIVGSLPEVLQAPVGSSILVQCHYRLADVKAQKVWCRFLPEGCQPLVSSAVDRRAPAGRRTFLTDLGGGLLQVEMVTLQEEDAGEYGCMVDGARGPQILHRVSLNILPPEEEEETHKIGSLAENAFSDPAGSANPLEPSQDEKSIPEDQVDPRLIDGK
The description is as above. The procedure:
as §1, §2

The next experiment concerns the target T8, hTLT-1 ECD-HPC4 R110A (human, UniProt Q86YW5 16-162).
T8 construct: As m27; also called Ala mutant 30
T8 chain: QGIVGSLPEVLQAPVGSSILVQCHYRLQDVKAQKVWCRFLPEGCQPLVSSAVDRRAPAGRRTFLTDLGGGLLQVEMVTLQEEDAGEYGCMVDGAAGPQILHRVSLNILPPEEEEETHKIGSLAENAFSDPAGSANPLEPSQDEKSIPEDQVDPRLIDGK
Described as above. The procedure:
as §1, §2

The target in the next experiment is T9, hTLT-1 ECD-HPC4 K46A (human, UniProt Q86YW5 16-162).
T9 construct: As m27; also called Ala mutant 10
T9 chain: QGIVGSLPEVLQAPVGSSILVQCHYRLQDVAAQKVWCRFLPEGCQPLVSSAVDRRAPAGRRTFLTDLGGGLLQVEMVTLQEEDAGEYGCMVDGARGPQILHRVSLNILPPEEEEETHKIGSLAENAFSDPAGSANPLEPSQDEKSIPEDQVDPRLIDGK
Described as above. The procedure: as §1, §2

The next experiment has as its target T10, hTLT-1 ECD-HPC4 R41A (human, UniProt Q86YW5 16-162).
T10 construct: As m27; also called Ala mutant 7
T10 chain: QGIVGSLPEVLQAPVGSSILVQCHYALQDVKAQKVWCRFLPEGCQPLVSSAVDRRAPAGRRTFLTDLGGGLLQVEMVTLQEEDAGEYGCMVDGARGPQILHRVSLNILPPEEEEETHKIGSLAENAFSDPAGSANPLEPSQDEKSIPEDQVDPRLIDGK
Described as above. The procedure:
as §1, §2

Another experiment addresses T11, hTLT-1 ECD-HPC4 H116A (human, UniProt Q86YW5 16-162).
T11 construct: As m27; also called Ala mutant 31
T11 chain: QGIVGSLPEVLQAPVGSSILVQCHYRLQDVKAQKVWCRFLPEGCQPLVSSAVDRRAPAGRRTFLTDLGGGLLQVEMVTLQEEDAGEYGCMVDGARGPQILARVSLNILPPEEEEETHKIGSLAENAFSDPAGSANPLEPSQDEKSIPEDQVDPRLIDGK
The experiment is described as above. How it is done: as §1, §2

B1: mAb 0051 HC2; LC2 (antibody, V domains shown)
VH: QVQLEQSGAELVRPGVSVKISCKGSGYTFTDYSMHWVKQSHAKSLEWIGVISTYYGDVRYNQKFKGKATMTVDKSSSTAYMALARLTSEDSAIYYCARAPMITTGAWFAYWGQGTLVTVSA
VL: SIVMTQTPKFLLVSAGDRVTITCKASQSVSNDVAWYQQKPGQSPKLLINYASSRYTGIPDRFTGSGYGTDFTFTISTVQAEDLAVYFCQQDYSSPYTFGGGTKLEIER
notes: also called 0197-0000-0051
By Kd is commonly meant the constant that tells how readily two partners part at equilibrium. One may read the koff as a measure of how fast the partners let go of each other. The low end stands for slow dissociation, the high end for fast dissociation. In general, kon refers to the rate constant with which the complex forms. With B1, in experiment [1], the Kd is 19.3 nM. In experiment [1], this molecule had a koff of 0.00472 s⁻¹. Moreover, in experiment [1], the kon is 245000 M⁻¹ s⁻¹. Also, the “binding relative to wt hTLT-1 ECD-HPC4” value was < 0.4 fraction of wt binding with hTLT-1 ECD-HPC4 F54A, < 0.2 fraction of wt binding with hTLT-1 ECD-HPC4 M91A, < 0.2 fraction of wt binding with hTLT-1 ECD-HPC4 R117A and < 0.6 fraction of wt binding in the experiment with hTLT-1 ECD-HPC4 S119A.

B2: mAb 0023 HC2; LC2 (antibody, V domains shown)
VH: EVRLVESGGGLVQPGGSLKLSCATSGFTFSDYFMYWIRQTPEKRLEWVAYISNGGDSSSYPDTVKGRFTISRDNAKNTLYLQMSRLKSEDTAMYYCATNKNWDDYYDMDYWGQGTSVTVSS
VL: DIVVSQSPSSLAVSAGEKVTMSCKSSQSLLNSRTRKNYLAWYQQKPGQSPKLLIYWASTRESGVPDRFTGSGSGTDFTLTISSVQAEDLAVYYCKQSYNLLTFGAGTKLELKR
notes: also called 0197-0000-0023
In experiment [1], B2 yielded a dissociation constant (Kd) of 4.36 nM. The molecule further gave a koff in experiment [1] of 0.00125 s⁻¹. Moreover, the kon in experiment [1] is 287000 M⁻¹ s⁻¹. Also, the “binding relative to wt hTLT-1 ECD-HPC4” value is < 0.4 fraction of wt binding with hTLT-1 ECD-HPC4 M91A; < 0.2 fraction of wt binding with hTLT-1 ECD-HPC4 L42A; < 0.2 fraction of wt binding with hTLT-1 ECD-HPC4 Q43A; < 0.2 fraction of wt binding with hTLT-1 ECD-HPC4 R110A; < 0.2 fraction of wt binding with hTLT-1 ECD-HPC4 K46A.

B3: mAb 0062 HC2; LC2 (antibody, V domains shown)
VH: QVQLQQSGAEPMKPGASVKISCKATGYTFSSHWIEWIKQRPGHGLEWIGEILPGSGNTNYNEKFKGKATFTADTSSNTAYMQLSSLTSEDSAVYYCARGYYGLNYDWYFDVWGAGTTVTVSS
VL: DIQMTQTTSSLSASLGDRVTISCRASQDISNYLNWYQQKPDGTVKLLIFYTSRLHSGVPSRFSGSGSGTDYSLTISNLEPEDIATYYCQQDTKLPYTFGGGTKLEMKR
notes: also called 0197-0000-0062; 0052HC.C91Y + 0052LC
For B3, the affinity in experiment [1], expressed as Kd, was 4.12 nM. In [1], this molecule registered a koff of 0.00134 s⁻¹. In addition, the association rate constant (kon) in [1] was found to be 326000 M⁻¹ s⁻¹. Besides, the “binding relative to wt hTLT-1 ECD-HPC4” value was < 0.6 fraction of wt binding in the experiment with hTLT-1 ECD-HPC4 F54A; < 0.4 fraction of wt binding with hTLT-1 ECD-HPC4 M91A; < 0.2 fraction of wt binding with hTLT-1 ECD-HPC4 R41A; < 0.6 fraction of wt binding in the experiment with hTLT-1 ECD-HPC4 L42A; < 0.4 fraction of wt binding with hTLT-1 ECD-HPC4 Q43A; < 0.2 fraction of wt binding with hTLT-1 ECD-HPC4 R110A. Further, in the experiment with hTLT-1 ECD-HPC4 H116A, the “binding relative to wt hTLT-1 ECD-HPC4” value was < 0.6 fraction of wt binding.
